Source: the supplement of paper PMC9732359
± gives the uncertainty stated by the source.

Assay: protein stability index of a GFP-peptide fusion (yeast GPS) (PSI 1-4); higher = more stable; sorted into four equal gates, so the index is relative within each strain
How it was run: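 Tiled yeast protein peptides of 17 residues were each joined downstream of GFP, on plasmids that also express Cherry. The pooled library was maintained in yeast, and mid-log cultures in leucine-free medium were sorted into four equal gates on the GFP/Cherry ratio. Plasmids from every gate were amplified by PCR and sequenced on Illumina, with barcodes linking reads to strains. The protein stability index of a peptide is its gate-number-weighted read frequency summed over the gates.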

## IVLSDQTQEFFLSSFDD [YJL039C/NUP192]
doa10∆
  protein stability index: 2.91 ± 0.12
pdr5∆
  protein stability index: 2.89 ± 0.093
san1∆
  protein stability index: 2.92 ± 0.057
ubr1∆
  protein stability index: 3.25 ± 0.13

## SATFLRIVGSELIQKYL [RPT2]
doa10∆
  protein stability index: 1.41 ± 0.066
pdr5∆
  protein stability index: 1.46 ± 0.071
san1∆
  protein stability index: 1.18 ± 0.13
ubr1∆
  protein stability index: 1.28 ± 0.051

## RQILFKYPMYMQLEEEL [MED6]
doa10∆
  protein stability index: 2.18 ± 0.064
pdr5∆
  protein stability index: 2.25 ± 0.069
san1∆
  protein stability index: 2.37 ± 0.12
ubr1∆
  protein stability index: 1.72 ± 0.062

## KKIMDETPSRLLLSPDQ [ITC1]
doa10∆
  protein stability index: 3.04 ± 0.056
pdr5∆
  protein stability index: 3.37 ± 0.065
san1∆
  protein stability index: 3.21 ± 0.078
ubr1∆
  protein stability index: 3.33 ± 0.041

## VTLFQMAILLLYNDADV [CDC53]
doa10∆
  protein stability index: 2.03 ± 0.057
pdr5∆
  protein stability index: 1.79 ± 0.051
san1∆
  protein stability index: 1.67 ± 0.099
ubr1∆
  protein stability index: 1.96 ± 0.041

## SKTGSVDTLHNKEGTLE [SSN2]
doa10∆
  protein stability index: 3.46 ± 0.24
pdr5∆
  protein stability index: 3.14 ± 0.16
san1∆
  protein stability index: 3.19 ± 0.083
ubr1∆
  protein stability index: 3.4 ± 0.14

## LPLLILENSSRSPRVVT [NUT1]
doa10∆
  protein stability index: 1.76 ± 0.054
pdr5∆
  protein stability index: 2 ± 0.046
san1∆
  protein stability index: 2.258 ± 0.015
ubr1∆
  protein stability index: 1.94 ± 0.039

## NTNNNNSTGHSSNTNNN [SWI1]
doa10∆
  protein stability index: 2.63 ± 0.049
pdr5∆
  protein stability index: 2.29 ± 0.05
san1∆
  protein stability index: 2.41 ± 0.058
ubr1∆
  protein stability index: 1.93 ± 0.05

## TIVLSLNVKCTRNPDAP [RPC40]
doa10∆
  protein stability index: 1.66 ± 0.091
pdr5∆
  protein stability index: 2.14 ± 0.18
san1∆
  protein stability index: 2.91 ± 0.13

## SFDEWFNTPFANTGGQD [SNF2]
doa10∆
  protein stability index: 2.8 ± 0.099
pdr5∆
  protein stability index: 2.99 ± 0.12
san1∆
  protein stability index: 3.41 ± 0.095
ubr1∆
  protein stability index: 3.15 ± 0.15

## FYQGKTGVVYNVTKSSV [RPL21A]
doa10∆
  protein stability index: 2.69 ± 0.11
pdr5∆
  protein stability index: 2.58 ± 0.079
san1∆
  protein stability index: 2.42 ± 0.086
ubr1∆
  protein stability index: 2.65 ± 0.071

## MGKGKPRGLNSARKLRV [RPS23A]
doa10∆
  protein stability index: 2.4 ± 0.089
pdr5∆
  protein stability index: 3.05 ± 0.08
san1∆
  protein stability index: 2.96 ± 0.094
ubr1∆
  protein stability index: 2.79 ± 0.072

## GKPVSLPLLYNFNPDNG [FAS1]
doa10∆
  protein stability index: 2.93 ± 0.095
pdr5∆
  protein stability index: 3.27 ± 0.1
san1∆
  protein stability index: 2.62 ± 0.075
ubr1∆
  protein stability index: 2.92 ± 0.076

## TTAVDALQKGLKDLMDL [RPC19]
doa10∆
  protein stability index: 3.58 ± 0.23
pdr5∆
  protein stability index: 2.79 ± 0.26
san1∆
  protein stability index: 2.9 ± 0.12
ubr1∆
  protein stability index: 3.02 ± 0.13

## ANNNINSASSAPTPAAP [SWI1]
doa10∆
  protein stability index: 2.99 ± 0.064
pdr5∆
  protein stability index: 2.88 ± 0.077
san1∆
  protein stability index: 3.05 ± 0.078
ubr1∆
  protein stability index: 2.97 ± 0.064

## EILYYQIKTLPEQYSDI [AAR2]
doa10∆
  protein stability index: 2.9 ± 0.081
pdr5∆
  protein stability index: 3.14 ± 0.084
san1∆
  protein stability index: 2.77 ± 0.067
ubr1∆
  protein stability index: 2.91 ± 0.046

## RVTGGMKVKADRDESSP [RPS14A]
doa10∆
  protein stability index: 3.31 ± 0.077
pdr5∆
  protein stability index: 3.24 ± 0.063
san1∆
  protein stability index: 3.28 ± 0.038
ubr1∆
  protein stability index: 3.26 ± 0.05

## EPAEANEENDLDVDPAK [RPB2]
doa10∆
  protein stability index: 3.3 ± 0.18
pdr5∆
  protein stability index: 3.15 ± 0.19
san1∆
  protein stability index: 3.17 ± 0.13
ubr1∆
  protein stability index: 3.41 ± 0.17

## RHTTGTGRMRYLKHVSR [RPL37A]
doa10∆
  protein stability index: 3.14 ± 0.11
pdr5∆
  protein stability index: 3.26 ± 0.081
san1∆
  protein stability index: 3.55 ± 0.081
ubr1∆
  protein stability index: 3.1 ± 0.11

## YIRKLISSGLLYLQDSN [SRB8]
doa10∆
  protein stability index: 1.63 ± 0.068
pdr5∆
  protein stability index: 1.21 ± 0.093
san1∆
  protein stability index: 1.18 ± 0.11
ubr1∆
  protein stability index: 1.11 ± 0.061

## SSFSKKTLTEEVTKSSH [YIL149C/MLP2]
doa10∆
  protein stability index: 2.69 ± 0.054
pdr5∆
  protein stability index: 2.88 ± 0.058
san1∆
  protein stability index: 2.77 ± 0.071
ubr1∆
  protein stability index: 3.09 ± 0.048

## PNRLVKELQYDNEQNLE [PRE2]
pdr5∆
  protein stability index: 2.97 ± 0.099
san1∆
  protein stability index: 2.8 ± 0.094
ubr1∆
  protein stability index: 3.08 ± 0.073

## HHIHHFEKKELQEKFLN [IRR1]
doa10∆
  protein stability index: 1.72 ± 0.035
pdr5∆
  protein stability index: 1.61 ± 0.043
san1∆
  protein stability index: 1.87 ± 0.068
ubr1∆
  protein stability index: 1.56 ± 0.037

## ISCPLIGVIQLAHYVVT [FAS1]
doa10∆
  protein stability index: 1.57 ± 0.072
pdr5∆
  protein stability index: 1.2 ± 0.041
san1∆
  protein stability index: 1.24 ± 0.093
ubr1∆
  protein stability index: 1.27 ± 0.042

## SMENYHLLIKIIRQLSE [SRB8]
doa10∆
  protein stability index: 1.71 ± 0.058
pdr5∆
  protein stability index: 1.77 ± 0.064
san1∆
  protein stability index: 2.31 ± 0.11
ubr1∆
  protein stability index: 1.63 ± 0.046

## RLAEFKRRKLDLNNAVQ [SMC4]
doa10∆
  protein stability index: 3.28 ± 0.27
pdr5∆
  protein stability index: 2.87 ± 0.12
san1∆
  protein stability index: 2.98 ± 0.067
ubr1∆
  protein stability index: 2.96 ± 0.078

## WNRADNHFKDTYGFSIL [FAS1]
doa10∆
  protein stability index: 3.07 ± 0.12
pdr5∆
  protein stability index: 2.57 ± 0.069
san1∆
  protein stability index: 3.35 ± 0.083
ubr1∆
  protein stability index: 3.27 ± 0.092

## DIFAVNLEESSKLDIYT [RET1]
doa10∆
  protein stability index: 2.98 ± 0.097
pdr5∆
  protein stability index: 2.78 ± 0.081
san1∆
  protein stability index: 2.72 ± 0.087
ubr1∆
  protein stability index: 3 ± 0.08

## HHNDISNDSQSHFDYNT [YCG1]
doa10∆
  protein stability index: 1.89 ± 0.18
pdr5∆
  protein stability index: 2.16 ± 0.17
san1∆
  protein stability index: 2.49 ± 0.14
ubr1∆
  protein stability index: 2.39 ± 0.16

## TSLQGTYEAIEITDAYC [YMR129W/POM152]
doa10∆
  protein stability index: 2.63 ± 0.053
pdr5∆
  protein stability index: 2.86 ± 0.059
san1∆
  protein stability index: 2.74 ± 0.049
ubr1∆
  protein stability index: 2.52 ± 0.038

## IGGMRVDENGDPIWQHQ [RET1]
doa10∆
  protein stability index: 3.13 ± 0.2
pdr5∆
  protein stability index: 3.38 ± 0.19
san1∆
  protein stability index: 2.88 ± 0.26
ubr1∆
  protein stability index: 3.42 ± 0.092

## SNMILGSVELSTGDYTF [YML103C/NUP188]
doa10∆
  protein stability index: 2.48 ± 0.055
pdr5∆
  protein stability index: 2.35 ± 0.065
san1∆
  protein stability index: 2.16 ± 0.077
ubr1∆
  protein stability index: 2.43 ± 0.037

## VSNIEGILDEIMFNHAR [RGR1]
doa10∆
  protein stability index: 2.77 ± 0.054
pdr5∆
  protein stability index: 2.53 ± 0.053
san1∆
  protein stability index: 2.46 ± 0.065
ubr1∆
  protein stability index: 2.99 ± 0.031

## PGVDVSAEEQLRKIDML [SRB7]
doa10∆
  protein stability index: 2.9 ± 0.084
pdr5∆
  protein stability index: 2.61 ± 0.061
san1∆
  protein stability index: 2.31 ± 0.072
ubr1∆
  protein stability index: 2.67 ± 0.043

## QAELLQLAVKIINKVLD [YJL039C/NUP192]
doa10∆
  protein stability index: 2.33 ± 0.25
pdr5∆
  protein stability index: 3.09 ± 0.091
san1∆
  protein stability index: 2.74 ± 0.13

## PIGEAGDFGGWFCPCHG [RIP1]
doa10∆
  protein stability index: 2 ± 0.1
pdr5∆
  protein stability index: 1.97 ± 0.05
san1∆
  protein stability index: 2.87 ± 0.08
ubr1∆
  protein stability index: 3.18 ± 0.075

## WSEITESMSYLPDPILK [MCD1]
pdr5∆
  protein stability index: 2.97 ± 0.18
san1∆
  protein stability index: 2.92 ± 0.23
ubr1∆
  protein stability index: 2.64 ± 0.1

## SPNPTLQPVIPGGAASK [SNF5]
doa10∆
  protein stability index: 3.23 ± 0.093
pdr5∆
  protein stability index: 3.24 ± 0.082
san1∆
  protein stability index: 3.19 ± 0.058
ubr1∆
  protein stability index: 2.88 ± 0.059

## LVGSEIYEKLKNYLKNY [CDC53]
pdr5∆
  protein stability index: 1.21 ± 0.12
san1∆
  protein stability index: 1.09 ± 0.16

## DLETSLSQSSSYLETLT [MED2]
doa10∆
  protein stability index: 2.94 ± 0.075
pdr5∆
  protein stability index: 3.12 ± 0.11
san1∆
  protein stability index: 2.7 ± 0.077
ubr1∆
  protein stability index: 2.96 ± 0.099

## IIFNYVPGPGTKLIQYE [CSL4]
pdr5∆
  protein stability index: 2.99 ± 0.1
ubr1∆
  protein stability index: 2.84 ± 0.098

## PFSYLIDETMMDKPLNF [SRB5]
doa10∆
  protein stability index: 2.88 ± 0.11
pdr5∆
  protein stability index: 3.09 ± 0.073
san1∆
  protein stability index: 2.83 ± 0.067
ubr1∆
  protein stability index: 2.97 ± 0.054

## FKSSVEMGKTDKSTKTA [YOR098C/NUP1]
doa10∆
  protein stability index: 3.45 ± 0.095
pdr5∆
  protein stability index: 3.24 ± 0.099
san1∆
  protein stability index: 3.24 ± 0.05
ubr1∆
  protein stability index: 3.43 ± 0.063

## ATTSVMMVNNQTMQLIK [SRB6]
doa10∆
  protein stability index: 3.09 ± 0.16
pdr5∆
  protein stability index: 2.1 ± 0.17
san1∆
  protein stability index: 2.12 ± 0.1

## YFFQLQIRSADEPMTTF [RPC11]
doa10∆
  protein stability index: 2.77 ± 0.063
pdr5∆
  protein stability index: 2.91 ± 0.068
san1∆
  protein stability index: 3.06 ± 0.058
ubr1∆
  protein stability index: 3.26 ± 0.071

## MSGFSLSEYLTKFQTTD [YCS4]
ubr1∆
  protein stability index: 2.9 ± 0.14

## RVISEYYSRITLLRLNE [RPN5]
doa10∆
  protein stability index: 2.65 ± 0.076
pdr5∆
  protein stability index: 1.67 ± 0.05
san1∆
  protein stability index: 1.68 ± 0.084
ubr1∆
  protein stability index: 1.87 ± 0.068

## TIQSDLNLSLHKLDLAK [SMC2]
doa10∆
  protein stability index: 2.81 ± 0.049
pdr5∆
  protein stability index: 2.79 ± 0.035
san1∆
  protein stability index: 3.01 ± 0.038
ubr1∆
  protein stability index: 2.828 ± 0.028

## EPMKQLNATKISPSAPS [YAR002W/NUP60]
doa10∆
  protein stability index: 2.73 ± 0.075
pdr5∆
  protein stability index: 2.91 ± 0.083
san1∆
  protein stability index: 2.96 ± 0.062
ubr1∆
  protein stability index: 2.77 ± 0.078

## SVMDPITSKRKAELLLK [DIS3]
doa10∆
  protein stability index: 2.83 ± 0.088
pdr5∆
  protein stability index: 2.76 ± 0.12
san1∆
  protein stability index: 2.55 ± 0.12
ubr1∆
  protein stability index: 2.85 ± 0.085

## IRYNAKRRNWRRTKMNI [RPL39]
doa10∆
  protein stability index: 3.23 ± 0.095
pdr5∆
  protein stability index: 3.23 ± 0.093
san1∆
  protein stability index: 3.07 ± 0.095
ubr1∆
  protein stability index: 3.32 ± 0.057

## TVTNSKFRSSILRKSFD [RPN2]
doa10∆
  protein stability index: 2.88 ± 0.1
pdr5∆
  protein stability index: 3.07 ± 0.091
san1∆
  protein stability index: 2.66 ± 0.094
ubr1∆
  protein stability index: 3.31 ± 0.091

## YSIFLENENILIKAKNF [SMC1]
doa10∆
  protein stability index: 1.21 ± 0.092
pdr5∆
  protein stability index: 1.22 ± 0.11
ubr1∆
  protein stability index: 1.14 ± 0.1

## RQGRSNRRGMLALSGTS [SNF5]
doa10∆
  protein stability index: 2.89 ± 0.068
pdr5∆
  protein stability index: 2.97 ± 0.057
san1∆
  protein stability index: 2.81 ± 0.058
ubr1∆
  protein stability index: 2.74 ± 0.051
